# Source: patent US20240182988
# Target: TtCsm complex (Thermus thermophilus) (UniProt Q53W19+Q53WF6+Q53WF5+Q53WF4+Q53W18)
# Test: cleavage_in_vitro
substance,measurement,value
crRNA targeting SARS-CoV-2 N gene (N1) ; SARS-CoV-2 N1 target RNA,activity,> 95 % cleaved
